Results as given in patent publication US7326551B2, “Cloning and sequencing of pyruvate decarboxylase (PDC) genes from bacteria and uses therefor” (University of Florida Research Foundation, Inc., priority 2001, dated 2008).

How the values were obtained:
Assay in all cases: PDC activity by ADH-coupled assay, kinetic parameters for pyruvate
[1] = substrate: CC(=O)C(=O)O; assay type: biochemical, Zymobacter palmae; conditions: other: ZpaPDC
Description: (i) Purification of Z. palmae PDC—Z. palmae and E. coli DH5α (pJAM3440) cells were grown to stationary phase and harvested by centrifugation at 10,000×g (10 min, 4° C.). Cells (12 to 15 g wet wt) were resuspended in 6 volumes of 50 mM sodium phosphate buffer at pH 6.5 containing 1 mM TPP and 1 mM MgCl2 (buffer A) and passed through a chilled French pressure cell at 20,000 lb per in^2. Cell debris was removed by centrifugation at 16,000×g (20 min, 4° C.). Cell lysate was heated to 60° C. for 30 min, chilled on ice for 15 min, and centrifuged at 16,000×g (30 min at 4° C.) to remove denatured polypeptides. […]
PDC Quantitation and Enzyme Activity Assay—Polypeptide concentration was determined using Bradford reagent with bovine serum albumin as the standard (BioRad). PDC activity was measured by the coupled assay with baker's yeast alcohol dehydrogenase (ADH) (Sigma-Aldrich, St. Louis, Mo.) as previously described (11). The reaction mixture contained 0.15 mM NADH, 5 mM MgCl2, 0.1 mM TPP, 5 mM pyruvate, and 10 U ADH in 50 mM sodium citrate buffer at pH 5.0 and was measured at 25° C. unless otherwise indicated. […]
(§1) As a further comparison, the kinetic constants of all four bacterial PDC polypeptides were determined at their pH optimum as well as at pH 7.0 (Table 3). […]

[2] = substrate: CC(=O)C(=O)O; assay type: biochemical, Zymomonas mobilis; conditions: other: ZmoPDC
Description: All procedures were performed at room temperature and all purification buffers contained 1 mM TPP and 1 mM MgCl2 unless otherwise indicated. S. ventriculi PDC was purified from recombinant E. coli BL21-CodonPlus-RIL(pJAM419) and Rosetta (DE3)(pRARE, pJAM419) as previously described (45). Z. mobilis PDC was purified from recombinant E. coli DH5α (pLOI276) (11) using thermal treatment, Q-Sepharose, and Superdex 200 procedures as described below for the Z. palmae PDC with the exception that the Z. mobilis PDC was eluted from Q-Sepharose at 0.22 to 0.32 M NaCl.
(§2) PDC Quantitation and Enzyme Activity Assay—Polypeptide concentration was determined using Bradford reagent with bovine serum albumin as the standard (BioRad). PDC activity was measured by the coupled assay with baker's yeast alcohol dehydrogenase (ADH) (Sigma-Aldrich, St. Louis, Mo.) as previously described (11). The reaction mixture contained 0.15 mM NADH, 5 mM MgCl2, 0.1 mM TPP, 5 mM pyruvate, and 10 U ADH in 50 mM sodium citrate buffer at pH 5.0 and was measured at 25° C. unless otherwise indicated. One unit of enzyme activity is defined as the amount of enzyme that generates 1 μmol of acetaldehyde per min.
as §1

[3] = substrate: CC(=O)C(=O)O; assay type: biochemical, Acetobacter pasteurianus; conditions: other: ApaPDC
Excerpt: (ii) Purification of A. pasteurianus PDC—PDC was purified from A. pasteurianus and E. coli ER1648(pJAM304) using heat-treatment, Q-Sepharose, Superdex 200, and hydroxyapatite as described for the Z. palmae PDC with the following modifications. Cells were passed through a French pressure cell at 30,000 lb per in^2. The PDC activity, which was eluted at 0.17 to 0.26 M NaCl from the Q-Sepharose column, was pooled and concentrated by dialysis against PEG8000 prior to loading onto the Superdex 200 column.
as §2, §1

[4] = pH 7.0, normal Michaelis-Menten kinetics, pH 7.0, 25.0 °C

B1: Zymobacter palmae pyruvate decarboxylase (ZpaPDC), recombinant, wild type, SEQ ID NO:2 (Zymobacter palmae) (protein)
chain: MYTVGMYLAERLAQIGLKHHFAVAGDYNLVLLDQLLLNKDMEQVYCCNELNCGFSAEGYARARGAAAAIVTFSVGAISAMNAIGGAYAENLPVILISGSPNTNDYGTGHILHHTIGTTDYNYQLEMVKHVTCARESIVSAEEAPAKIDHVIRTALRERKPAYLEIACNVAGAECVRPGPINSLLRELEVDQTSVTAAVDAAVEWLQDRQNVVMLVGSKLRAAAAEKQAVALADRLGCAVTIMAAEKGFFPEDHPNFRGLYWGEVSSEGAQELVENADAILCLAPVFNDYATVGWNSWPKGDNVMVMDTDRVTFAGQSFEGLSLSTFAAALAEKAPSRPATTQGTQAPVLGIEAAEPNAPLTNDEMTRQIQSLITSDTTLTAETGDSWFNASRMPIPGGARVELEMQWGHIGWSVPSAFGNAVGSPERRHIMMVGDGSFQLTAQEVAQMIRYEIPVIIFLINNRGYVIEIAIHDGPYNYIKNWNYAGLIDVFNDEDGHGLGLKASTGAELEGAIKKALDNRRGPTLIECNIAQDDCTETLIAWGKRVAATNSRKPQA
notes: coupled test with yeast ADH
With B1 the Km ([1]; pH 6.0, 25° C., normal Michaelis-Menten kinetics, pH 6.0, 25.0 °C) was 240 µM and the Km ([1]; pH 7.0, normal Michaelis-Menten kinetics, pH 7.0) was 710 µM.

B2: Zymomonas mobilis pyruvate decarboxylase (ZmoPDC), recombinant, wild type, SEQ ID NO:8 (Zymomonas mobilis subsp. mobilis ZM4 = ATCC 31821) (protein)
chain: MSYTVGTYLAERLVQIGLKHHFAVAGDYNLVLLDNLLLNKNMEQVYCCNELNCGFSAEGYARAKGAAAAVVTYSVGALSAFDAIGGAYAENLPVILISGAPNNNDHAAGHVLHHALGKTDYHYQLEMAKNITAAAEAIYTPEEAPAKIDHVIKTALREKKPVYLEIACNIASMPCAAPGPASALFNDEASDEASLNAAVEETLKFIANRDKVAVLVGSKLRAAGAEEAAVKFADALGGAVATMAAAKSFFPEENPHYIGTSWGEVSYPGVEKTMKEADAVIALAPVFNDYSTTGWTDIPDPKKLVLAEPRSVVVNGVRFPSVHLKDYLTRLAQKVSKKTGALDFFKSLNAGELKKAAPADPSAPLVNAEIARQVEALLTPNTTVIAETGDSWFNAQRMKLPNGARVEYEMQWGHIGWSVPAAFGYAVGAPERRNILMVGDGSFQLTAQEVAQMVRLKLPVIIFLINNYGYTIEVMIHDGPYNNIKNWDYAGLMEVFNGNGGYDSGAGKGLKAKTGGELAEAIKVALANTDGPTLIECFIGREDCTEELVKWGKRVAAANSRKPVNKLL
notes: coupled test with yeast ADH
B2 was tested, and the Km ([2]; pH 6.0, normal Michaelis-Menten kinetics, pH 6.0, 25.0 °C) was 430 µM and the Km [2, 4] was 940 µM.

B3: Acetobacter pasteurianus pyruvate decarboxylase (ApaPDC), recombinant, wild type, SEQ ID NO:4 (Acetobacter pasteurianus) (protein)
chain: MTYTVGMYLAERLVQIGLKHHFAVGGDYNLVLLDQLLLNKDMKQIYCCNELNCGFSAEGYARSNGAAAAVVTFSVGAISAMNALGGAYAENLPVILISGAPNSNDQGTGHILHHTIGKTDYSYQLEMARQVTCAAESITDAHSAPAKIDHVIRTALRERKPAYLDIACNIASEPCVRPGPVSSLLSEPEIDHTSLKAAVDATVALLKNRPAPVMLLGSKLRAANALAATETLADKLQCAVTIMAAAKGFFPEDHAGFRGLYWGEVSNPGVQELVETSDALLCIAPVFNDYSTVGWSGMPKGPNVILAEPDRVTVDGRAYDGFTLRAFLQALAEKAPARPASAQKSSVPTCSLTATSDEAGLTNDEIVRHINALLTSNTTLVAETGDSWFNAMRMTLAGARVELEMQWGHIGWSVPSAFGNAMGSQDRQHVVMVGDGSFQLTAQEVAQMVRYELPVIIFLINNRGYVIEIAIHDGPYNYIKNWDYAGLMEVFNAGEGHGLGLKATTPKELTEAIARAKANTRGPTLIECQIDRTDCTDMLVQWGRKVASTNARKTTLA
notes: coupled test with yeast ADH
With B3 the Km ([3]; pH 5.0, 25° C., normal Michaelis-Menten kinetics, pH 5.0) was 390 µM and the Km [3, 4] was 5100 µM.
